{"source": "paper PMC10942606", "about": "(eLife, 2023)", "binders": {"B1": {"name": "Pcf1 (large subunit of SpCAF-1) (natural protein, S. pombe, UniProt Q1MTN9 1-544, looked up)", "chain": "MNSESVDSDVAASTSNKGNELCSSSTDITSLSVSSPNESVIHSSHSASEADEYVCKLSYEGNRKKRIYNGSAEAGKEKKLQKQRAQEERIRQKEAERLKREKERQQREQEKKLREQEKIAAKKMKELEKLEKERIRLQEQQRRKEERDQKLREKEEAQRLRQEQILNKERQQLKLNNFFTKGVEKRIAPNENFVADKTDELNEFEKEFRPFFIKHQMSLSKYPSPNESDSFLDEVLSTSKSYPLKLNDIFTPSDAVSSANSLGVSNRNSENEVRQLMSAYQDPSVSKPQEILSCLSQIPIKFIFFYQDVRPPYFGSYTKTHSHGSNVLLNPWLEDEDIDYTYDSEAEWVADEEDDGEDLESEDEEVDNSDDIVEDGDNAFVDDEDDDKDSVNASNTHRSSGPLEVIVEGPVWDSKFLPDFNCLSLIEPISSFSASTYLQIDPKEDLWASQDTAPASSGMTIGPTSSLSDDLQVRFPSEDIPKFIEYVRNSHDNKVFLIENLRHMFPYVTKNIISETLGKVAVRKGKSVSDGWIIKENFASLLSS"}, "B2": {"name": "Pcf1_ED (325-396) (domain or fragment, S. pombe, UniProt Q1MTN9 325-396, looked up)", "chain": "SNVLLNPWLEDEDIDYTYDSEAEWVADEEDDGEDLESEDEEVDNSDDIVEDGDNAFVDDEDDDKDSVNASNT"}, "B3": {"name": "SpCAF-1-KER* complex (Pcf1 R147E-K150E-K154E-R161E-K168E, Pcf2, Pcf3) (complex, S. pombe)", "chain 1": "B1 chain with R147E, K150E, K154E, R161E, K168E", "chain 2": "MRAEVLQIRWHYDANDDHTPIYSVDFQKNSLNKFATCGGDSKIRIWQLITSESSTKVEYLSTLSRHTQAVNVVRFNPEGNILATAGDEGTIMLWVPTNTPITTLADDAEELALAKEYWKVKIVCRSMGSEIYDLCWSVDSNFLIAGAMDNSLRLYDAHTGQLLTQKFDHSHYVQGVCWDPLNQYIVSESSDRSICLYEIQEEKKNPKKFQLVLKSRICRIEYNVTKFELISVTKPLNNDESSGISEPIETSNNNESPVSKHEALSSTANIVKDGSLERTEPPNSLNSKISYSLYCNETLVSFFRRPAFSPDGLLLVTPAGRLRPHGQPNFEVPYTAYIYTRGSITKQPVACLNGFKKPVIAVRFSPIHYELNSFSNFSFTSVSFNLPYRMVFAVACQDAVYIYDTQTCKPFYRAVNLHYSNLTDIAWNDDGNVLLMTSIDGFCSVITFEPGELGVKSQHKISLPEKRSASPSSIDDSQDNTAGGPATTTLIPRKVESSKVSKKRIAPTPVYP", "chain 3": "MNTELDMQNFEHIKFLENQISEDHFRWKKNSKHLYNLLITRTLTWPSLSIQWLSAMESITEKAVLKNRLLLGTHAAEGMPNFLQLADLDLPDFNQTILDPVKHYNEDTGELGGYSMQHSCKFQISQRILHNGDVNRVRHMPQNPNIIATMSSCGNAYIFDRTKYTSMPAEEFLPNISLIGHKKEGFGLSWNRQQNCRLVTAANDSKILEWDLNNFSRDTRCLTPVKDFHYDDSPVNDVEYHPHHTNLYIAVNDNGIAFICDNRLQQTCSKTVKASNPLFSVRHNPSIATLFALGSEQDLQLWDLRNLNKSVFNTSEDLSDNRLKVPSRLTLGGTSLSWSWRHSGRIVSACQEYCYVWNFNKANPLEFVHAGHKGTVNEVDFDPFEAQCIASVADDNELHIWKPNVIVN"}, "B4": {"name": "Pcf1_KER-PIP (56-185) (domain or fragment, S. pombe, UniProt Q1MTN9 56-185, looked up)", "chain": "KLSYEGNRKKRIYNGSAEAGKEKKLQKQRAQEERIRQKEAERLKREKERQQREQEKKLREQEKIAAKKMKELEKLEKERIRLQEQQRRKEERDQKLREKEEAQRLRQEQILNKERQQLKLNNFFTKGVEK"}, "B5": {"name": "Pcf1_KER*-PIP (56-185, R147E-K150E-K154E-R161E-K168E) (domain or fragment, S. pombe, UniProt Q1MTN9 56-185, looked up)", "chain": "B4 chain with R92E, K95E, K99E, R106E, K113E"}, "B6": {"name": "SpCAF-1 complex (Pcf1-Pcf2-Pcf3), wild type, full length (complex, S. pombe)", "chain 1": "B1 chain", "chain 2": "B3 chain 2", "chain 3": "B3 chain 3"}, "B7": {"name": "SpPCNA (recombinant S. pombe PCNA) (natural protein, UniProt Q03392 1-260, looked up)", "chain": "MLEARFQQAALLKKLLDAIKELVTDANFDCNDNGISLQAMDSSHVALVSMLIKSDGFEPYRCDRNIALGINLNALSKVLRCAQNEDLVTLKAEDTPEVLNLVFESEKNDRISDYDVKLMDIDQEHLGIPDIEYDATITMPAAEFQRITRDLLTLSDSVTINASKEGVRFSCKGDIGNGSTTLKQHTDLSDQDQSIEISLTQAVTLTFSLKYLAQFTKATPLATRVTLSMSNDVPLLVEYKMESGFLRFYLAPKIGEEDEE"}, "B8": {"name": "Pcf2 (medium subunit of SpCAF-1) (natural protein, S. pombe, UniProt O13985 1-512, looked up)", "chain": "B3 chain 2"}, "B9": {"name": "PCNA (endogenous, S. pombe) (natural protein, S. pombe (endogenous in S. pombe), UniProt Q03392 1-260, looked up)", "chain": "B7 chain"}, "B10": {"name": "Pcf3 (small subunit of SpCAF-1) (natural protein, S. pombe, UniProt Q9Y825 1-408, looked up)", "chain": "B3 chain 3"}}, "key": {"[1]": {"biological_target": "T1, S. pombe histones H3−H4 (S. pombe, UniProt P09988 1-136; P09322 1-103)", "assay": "NMR titration"}, "[2]": {"biological_target": "the molecule itself", "assay": "SEC"}, "[3]": {"biological_target": "T1, S. pombe histones H3−H4", "assay": "NMR titration", "remark": "listed apart in the source"}, "[4]": {"biological_target": "B7", "assay": "ITC"}, "[5]": {"biological_target": "T1, S. pombe histones H3−H4", "assay": "SEC"}, "[6]": {"biological_target": "B6", "assay": "native gel or EMSA"}, "[7]": {"biological_target": "B1", "assay": "SEC-SAXS"}, "[8]": {"biological_target": "FLAG-Pcf1-ED* (expressed from the endogenous pcf1 gene) (S. pombe, UniProt Q1MTN9 1-544, Y340A | W348A)", "assay": "co-IP"}}, "note": "Changes are numbered by the printed parent chain. Numbers in names are those of the source."}
{"binder": "B1", "values": [{"measurement": "binding result", "setting": "[1]", "value": "binds"}, {"measurement": "binding result", "setting": "[2]", "value": "binds"}]}
{"binder": "B2", "values": [{"measurement": "binding result", "setting": "[3]", "value": "binds"}]}
{"binder": "B3", "values": [{"measurement": "binding result", "setting": "[1]", "value": "binds"}]}
{"binder": "B4", "values": [{"measurement": "Kd", "setting": "[4]", "value": "0.7 ± 0.2", "unit": "µM"}, {"measurement": "dH", "setting": "[4]", "value": "2.9 ± 0.6", "unit": "kCal.M^–1"}, {"measurement": "stoichiometry N", "setting": "[4]", "value": "0.64 ± 0.04"}]}
{"binder": "B5", "values": [{"measurement": "Kd", "setting": "[4]", "value": "7.1 ± 1.5", "unit": "µM"}, {"measurement": "dH", "setting": "[4]", "value": "1 ± 0.5", "unit": "kCal.M^–1"}, {"measurement": "stoichiometry N", "setting": "[4]", "value": "0.7 ± 0.2"}]}
{"binder": "B6", "values": [{"measurement": "binding result", "setting": "[5]", "value": "binds"}]}
{"binder": "B7", "values": [{"measurement": "binding result", "setting": "[6]", "value": "binds"}]}
{"binder": "B8", "values": [{"measurement": "stoichiometry N", "setting": "[7]", "value": 1}]}
{"binder": "B9", "values": [{"measurement": "fold change of bound PCNA against WT Pcf1", "setting": "[8]", "value": "8 fold of WT Pcf1"}]}
{"binder": "B10", "values": [{"measurement": "stoichiometry N", "setting": "[7]", "value": 1}]}
